Consider 1 protein from US7879563B2, “Method of screening for a carnitine transporter agonist or antagonist and its uses” (Sanofi-Aventis Deutschland GmbH, priority 2004, dated 2011).

As usually defined, the Km is the concentration of substrate that gives half-maximal velocity.

Substrate in the data set: C[N+](C)(C)C[C@H](O)CC(=O)[O-]
Kind of data set: Tracer flux transport measurement in Xenopus laevis oocytes injected with cRNA comprising SEQ ID NO: 4. The data set is classed as cell-based, human. The following applies: other: concentration dependency of L-carnitine transport, Michaelis-Menten, uptake measured for 1 hour, FIG. 2. On the procedure:
The transport measurements of radioactively labeled compounds were executed using Xenopus laevis oocytes in the so-called “tracer flux method”, wherein the transport rate of substrates across the oocyte membrane into the cytosol is determined.
A Xenopus laevis oocyte was injected with a cRNA molecule comprising SEQ ID NO: 4.
Injected oocytes were kept in the culture medium ORi comprising gentamycin (50 mg/L) at 18° C. until the measurement of substrate uptake. Injured, acutely altered or later heavily damaged cells were discarded.
After 72 hours the oocyte was used for screening for a carnitine transporter agonist or antagonist. […]
The oocytes were washed four times in 15 ml ice cold ORi. […] The radioactivity of the lysates was determined in a liquid scintillation counter comprising a correction for the luminescence and an external standard. Each vial was counted for 5 minutes. […]
For the determination of concentration-dependent substrate uptake serial dilutions of the investigated substrate were prepared and the radioactivity was distributed, such that in each reaction mixture between 10000 and 20000 cpm were counted in the supernatant. For the KM determination the substrate uptake was measured for 1 hour. […] The transport rates were calculated and graphically plotted against the substrate concentration and adapted mathematically according to the Michaelis-Menten equation.

B1: carnitine transporter comprising the amino acid sequence SEQ ID NO: 1 (Homo sapiens) (protein)
chain: MVRLVLPNPGLDARIPSLAELETIEQEEASSRPKWDNKAQYMLTCLGFCVGLGNVWRFPYLCQSHGGGAFMIPFLILLVLEGIPLLYLEFAIGQRLRRGSLGVWSSIHPALKGLGLASMLTSFMVGLYYNTIISWIMWYLFNSFQEPLPWSDCPLNENQTGYVDECARSSPVDYFWYRETLNISTSISDSGSIQWWMLLCLACAWSVLYMCTIRGIETTGKAVYITSTLPYVVLTIFLIRGLTLKGATNGIVFLFTPNVTELAQPDTWLDAGAQVFFSFSLAFGGLISFSSYNSVHNNCEKDSVIVSIINGFTSVYVAIVVYSVIGFRATQRYDDCFSTNILTLINGFDLPEGNVTQENFVDMQQRCNASDPAAYAQLVFQTCDINAFLSEAVEGTGLAFIVFTEAITKMPLSPLWSVLFFIMLFCLGLSSMFGNMEGVVVPLQDLRVIPPKWPKEVLTGLICLGTFLIGFIFTLNSGQYWLSLLDSYAGSIPLLIIAFCEMFSVVYVYGVDRFNKDIEFMIGHKPNIFWQVTWRVVSPLLMLIIFLFFFVVEVSQELTYSIWDPGYEEFPKSQKISYPNWVYVVVVIVAGVPSLTIPGYAIYKLIRNHCQKPGDHQGLVSTLSTASMNGDLKY
notes: expressed in transfected cells; host or cells: Xenopus laevis oocytes injected with cRNA
On to B1, for which the Km was determined as 15 µM.
